Source: US20260242447A1 (CREATIVE BIOTHERAPEUTICS, published 2026)

Assays:
[1] = biological target: T1, GRP78 (soluble / recombinant protein) (UniProt P11021 19-654)
[2] = biological target: T1, GRP78 (soluble / recombinant protein); assay: method not stated

T1 sequence (P11021 19-654 limits assumed): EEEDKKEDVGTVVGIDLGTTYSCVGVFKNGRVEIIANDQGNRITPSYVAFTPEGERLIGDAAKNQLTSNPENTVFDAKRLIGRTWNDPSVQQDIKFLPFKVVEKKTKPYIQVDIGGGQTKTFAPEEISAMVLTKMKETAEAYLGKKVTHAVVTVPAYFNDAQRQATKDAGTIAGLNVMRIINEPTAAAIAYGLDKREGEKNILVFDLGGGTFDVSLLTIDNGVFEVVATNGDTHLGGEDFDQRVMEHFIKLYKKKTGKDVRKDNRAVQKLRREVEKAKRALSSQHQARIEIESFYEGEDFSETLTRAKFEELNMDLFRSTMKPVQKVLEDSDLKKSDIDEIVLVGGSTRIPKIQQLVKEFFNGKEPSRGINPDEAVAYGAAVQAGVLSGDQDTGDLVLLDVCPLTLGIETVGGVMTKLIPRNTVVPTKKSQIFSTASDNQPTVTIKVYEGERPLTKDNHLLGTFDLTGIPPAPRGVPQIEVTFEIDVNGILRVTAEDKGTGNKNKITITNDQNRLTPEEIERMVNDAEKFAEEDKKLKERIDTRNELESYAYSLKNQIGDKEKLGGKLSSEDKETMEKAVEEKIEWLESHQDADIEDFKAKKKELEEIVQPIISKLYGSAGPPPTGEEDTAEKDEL

B1: K5 (5th kringle domain of human plasminogen) (other)
chain: SEEDCMFGNGKGYRGKRATTVTGTPCQDWAAQEPHRHSIFTPETNPRAGLEKNYCRNPDGDVGGPWCYTTNPRKLYDYCDVPQCAAPKS
notes: also called kringle 5
Question: B1 was tested. Which IC50 [1] did it give?
Answer: 460 nM

Question: And the Kd [2]?
Answer: 0.6 nM
